Measurements taken from paper PMC3185416.
Where two headings read alike, the source gives them in different places.

Key:
Smad4 MH1 [1] = biological target: T1, Smad4 MH1 (mouse, UniProt P97471 1-140); assay: EMSA
Smad4 MH1;Smad3 MH1 = Smad4 MH1;Smad3 MH1 (mouse;mouse?, UniProt P97471;Q8BUN5 1-140;1-143, |); assay: EMSA
Smad4 MH1;Smad1 MH1 = Smad4 MH1;Smad1 MH1 (mouse;mouse?, UniProt P97471;P70340 1-140;1-136, |); assay: EMSA
Smad4 MH1;Smad2dE3 MH1 = Smad4 MH1;Smad2dE3 MH1 (mouse;mouse?, UniProt P97471;Q62432-2 1-140;1-153, |del79-108); assay: EMSA
Smad3 MH1 = Smad3 MH1 (UniProt Q8BUN5 1-143); assay: EMSA
Smad2dE3 MH1 = Smad2dE3 MH1 (UniProt Q62432-2 1-153, del79-108); assay: EMSA
Smad4 MH1 105HKN107/HSHH = Smad4 MH1 105HKN107/HSHH (mouse, UniProt P97471 1-104+=HSHH+108-140, internal_change); assay: EMSA
Smad4 MH1 AG/SH = Smad4 MH1 AG/SH (mouse, UniProt P97471 1-140, A85S;G86H); assay: EMSA
Smad4 MH1 R38K = Smad4 MH1 R38K (mouse, UniProt P97471 1-140, R38K); assay: EMSA
Smad4 MH1 K106S = Smad4 MH1 K106S (mouse, UniProt P97471 1-140, K106S); assay: EMSA
Smad1 MH1 = Smad1 MH1 (UniProt P70340 1-136); assay: EMSA
Chain of Smad1 MH1 (P70340 1-136): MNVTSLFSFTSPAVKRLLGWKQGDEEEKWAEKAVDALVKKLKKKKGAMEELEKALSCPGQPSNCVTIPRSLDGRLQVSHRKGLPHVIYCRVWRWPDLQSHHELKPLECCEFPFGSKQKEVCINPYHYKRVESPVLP

Smad3 MH1 S100K = Smad3 MH1 S100K (UniProt Q8BUN5 1-143, S99K); assay: EMSA
Smad3 MH1 99HSHH102/HKN = Smad3 MH1 99HSHH102/HKN (UniProt Q8BUN5 1-97+=HKN+102-143, internal_change); assay: EMSA
Smad3 MH1 K33R = Smad3 MH1 K33R (UniProt Q8BUN5 1-143, K33R); assay: EMSA
Smad4 MH1 [2] = biological target: T1, Smad4 MH1; assay: EMSA; remark: listed apart in the source
Smad4 MH1dN12 = Smad4 MH1dN12 (mouse, UniProt P97471 13-140); assay: EMSA
Smad4 MH1dN8 [3] = biological target: T2, Smad4 MH1dN8 (mouse, UniProt P97471 9-140); assay: EMSA
Smad4 MH1dN3 = Smad4 MH1dN3 (mouse, UniProt P97471 4-140); assay: EMSA
Smad4 MH1dN10 = Smad4 MH1dN10 (mouse, UniProt P97471 11-140); assay: EMSA
Smad4 MH1dN8 [4] = biological target: T2, Smad4 MH1dN8; assay: crystal structure
Smad4 MH1 [5] = biological target: T1, Smad4 MH1; assay: EMSA; remark: listed apart in the source

Measured: binding result

B1: OPN1 promoter element (dsDNA)
DNA 1: TGGAGACTGTCTGGA
DNA 2: TCCAGACAGTCTCCA
binds: Smad4 MH1 [1]

B2: palindromic SBE (EMSA) (dsDNA)
DNA 1: TCAGTCTAGACATAC
DNA 2: GTATGTCTAGACTGA
binds: Smad4 MH1;Smad3 MH1 | Smad4 MH1;Smad1 MH1 | Smad4 MH1;Smad2dE3 MH1 | Smad3 MH1 | Smad2dE3 MH1 | Smad4 MH1 105HKN107/HSHH | Smad4 MH1 AG/SH | Smad4 MH1 R38K | Smad4 MH1 K106S | Smad1 MH1 | Smad3 MH1 S100K | Smad3 MH1 99HSHH102/HKN | Smad3 MH1 K33R | Smad4 MH1 [2] | Smad4 MH1dN12 | Smad4 MH1dN8 [3] | Smad4 MH1dN3 | Smad4 MH1dN10

B3: JunB promoter element (dsDNA)
DNA 1: GACAGTCTGTCTGCC
DNA 2: GGCAGACAGACTGTC
binds: Smad4 MH1 [1]

B4: palindromic SBE 16-bp (crystal) (dsDNA)
DNA 1: TGCAGTCTAGACTGCA
DNA 2: TGCAGTCTAGACTGCA
binds: Smad4 MH1dN8 [4] | Smad4 MH1 [5]
